This is an account of results in US20250051409A1 (NATIONAL INSTITUTE FOR BIOTECHNOLOGY IN THE NEGEV, published 2025).

Assay [1] deals with T1, citrate synthase (CS), located in the matrix (endogenous) (UniProt O75390 28-466).
T1 sequence (looked up): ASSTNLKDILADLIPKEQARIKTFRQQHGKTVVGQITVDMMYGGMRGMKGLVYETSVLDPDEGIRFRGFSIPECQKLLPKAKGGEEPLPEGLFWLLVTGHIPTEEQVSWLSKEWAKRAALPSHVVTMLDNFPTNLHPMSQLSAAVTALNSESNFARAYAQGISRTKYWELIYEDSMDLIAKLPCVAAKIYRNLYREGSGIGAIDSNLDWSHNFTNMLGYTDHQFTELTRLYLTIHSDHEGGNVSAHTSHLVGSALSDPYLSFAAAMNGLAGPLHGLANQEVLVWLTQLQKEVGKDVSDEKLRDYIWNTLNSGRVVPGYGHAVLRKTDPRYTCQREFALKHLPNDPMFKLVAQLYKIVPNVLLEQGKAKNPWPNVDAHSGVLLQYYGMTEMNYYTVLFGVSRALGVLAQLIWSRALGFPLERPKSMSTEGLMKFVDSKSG
Description: in situ proximity ligation assay.

For assay [2], the target named is T2, ATP synthase subunit 5A, inner mitochondria membrane protein (endogenous) (UniProt P25705 44-553, limits assumed).
T2 construct: also called ATPsyn5a; ATP5a
T2 sequence (P25705 44-553 limits assumed): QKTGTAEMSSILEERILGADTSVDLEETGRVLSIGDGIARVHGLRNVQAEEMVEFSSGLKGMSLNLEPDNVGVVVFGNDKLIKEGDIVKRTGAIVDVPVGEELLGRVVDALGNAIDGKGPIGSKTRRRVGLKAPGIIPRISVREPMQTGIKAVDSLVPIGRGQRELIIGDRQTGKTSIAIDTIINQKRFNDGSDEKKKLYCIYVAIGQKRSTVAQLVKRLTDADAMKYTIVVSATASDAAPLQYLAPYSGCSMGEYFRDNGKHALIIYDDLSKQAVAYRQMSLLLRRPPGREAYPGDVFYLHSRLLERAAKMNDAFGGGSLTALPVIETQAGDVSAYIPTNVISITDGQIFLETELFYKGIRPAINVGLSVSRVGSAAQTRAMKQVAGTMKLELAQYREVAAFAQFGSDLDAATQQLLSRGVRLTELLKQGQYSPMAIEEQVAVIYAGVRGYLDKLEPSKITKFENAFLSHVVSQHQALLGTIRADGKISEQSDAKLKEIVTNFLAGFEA
Description: in situ proximity ligation assay.

B1: PSD, endogenous, in A549 cells (enzyme)
chain: MMCQSEARQGPELRAAKWLHFPQLALRRRLGQLSCMSRPALKLRSWPLTVLYYLLPLGALRPLSRVGWRPVSRVALYKSVPTRLLSRAWGRLNQVELPHWLRRPVYSLYIWTFGVNMKEAAVEDLHHYRNLSEFFRRKLKPQARPVCGLHSVISPSDGRILNFGQVKNCEVEQVKGVTYSLESFLGPRTCTEDLPFPPAASCDSFKNQLVTREGNELYHCVIYLAPGDYHCFHSPTDWTVSHRRHFPGSLMSVNPGMARWIKELFCHNERVVLTGDWKHGFFSLTAVGATNVGSIRIYFDRDLHTNSPRHSKGSYNDFSVVGSLTR
notes: Intracellular endogenous protein, detected with antibodies in the proximity ligation assay; also called phosphatidylserine decarboxylase
Regarding B1, in assay [1], the binding result is reported as “no binding”.

B2: SMAC/Diablo, endogenous, in A549 cells and A549 xenograft tumor sections (other, human, UniProt Q9NR28 56-239, looked up)
chain: AVPIAQKSEPHSLSSEALMRRAVSLVTDSTSTFLSQTTYALIEAITEYTKAVYTLTSLYRQYTSLLGKMNSEEEDEVWQVIIGARAEMTSKHQEYLKLETTWMTAVGLSEMAAEAAYQTGADQASITARNHIQLVKLQVEEVHQLSRKAETKLAEAQIEELRQKTQEEGEERAESEQEAYLRED
notes: Intracellular endogenous protein, detected with antibodies in the proximity ligation assay
B2: in assay [2], the binding result is “no binding”.
